Measurements: publication PMC3946335 (Small (Weinheim an der Bergstrasse, Germany), 2013)

Assays:
[1] = tested on: 4T1 cells; assay: Caspase-3/7 assay; assay type: cell-based, murine; conditions: low MMP-14
[2] = tested on: MMTV-PyMT tumors; assay: In vivo T2-weighted MR imaging of tumor accumulation; parameters: species or system mouse; conditions: single IV injection: ferumoxytol 0.5 mmol Fe/kg, CLIO-ICT 0.75 mmol Fe/kg, ICT 1.0 μmol/kg; up to 24 h; n=6
[3] = Dynamic Light Scattering, nanoparticle size; assay type: physicochemical; conditions: nanoparticle size by DLS; PBS buffer, filtered 0.2 μm, diluted to 0.6 mM iron
[4] = tested on: human dermal fibroblasts; assay: Caspase-3/7 assay; assay type: cell-based; conditions: MMP-14 negative fibroblasts
[5] = Laser Doppler Electrophoresis, zeta potential; assay type: physicochemical
[6] = r1 and r2 relaxivities by NMR; assay type: physicochemical; conditions: relaxivity; 1 – 60 mM iron; Varian Inova 300MHz (7 Tesla) NMR
[7] = Iron oxide core size by TEM; assay type: physicochemical; conditions: after functionalization
[8] = Number of ICT molecules per nanoparticle, from FITC absorption and emission; assay type: physicochemical; conditions: from attached fluorescein absorption at 492 nm and known TNP concentration
[9] = tested on: normal organs (liver, spleen, kidney, brain, bone marrow and heart); assay: Toxicity in normal organs; assay type: in vivo, mouse; conditions: histology and caspase-3 activity
[10] = tested on: MMTV-PyMT tumors; assay: Tumor histology; assay type: in vivo, mouse
[11] = tested on: PyMT tumors; assay: Antitumor activity, daily tumor size; assay type: in vivo, mouse; conditions: calipers, daily for 7 days after single IV injection; n=6 mice
[12] = tested on: MMTV-PyMT tumor cells; assay: Caspase-3/7 assay; assay type: cell-based, murine; conditions: DEVD-AMC fluorescence, triplicate samples, printed as x:1
[13] = target: recombinant MMP-14 (Homo sapiens, UniProt P50281); assay type: biochemical; conditions: ICT 10 mM, recombinant MMP-14 20 μg/mL, PBS buffer, 37 °C, identical conditions (2 hours); HPLC

## FITC-βAla-Cys-Arg-Ser-Cit-Gly-HPhe-Tyr-Leu-Tyr [CLIO-ICT]
[1]
  response to treatment (caspase assay): not responsive
[2]
  tumor enhancement on postcontrast T2-weighted MR images: negative (dark) enhancement
[3]
  D (DLS): 21±3 nm
[4]
  cytotoxic effects (caspase assay): did not show any significant cytotoxic effects
[5]; Laser Doppler Electrophoresis, PBS buffer, filtered 0.2 μm, 0.6 mM iron
  Z (zeta potential): +21±7 meV
[5]; sign of zeta potential, laser Doppler electrophoresis
  charge of the nanoparticle: positive
[6]
  r1: 38.9 mM⁻¹ s⁻¹
[7]
  iron oxide core size: 6.5±0.7 nm
[8]
  # of ICT (ICT molecules per iron oxide nanoparticle): 4.7±0.4
[9]
  toxicity or cell death in normal tissues: no toxicity or cell death
[10]; 48 hours after intravenous administration
  iron deposits in tumors (Prussian Blue): Iron deposits were noted
[10]; MMTV-PyMT tumors
  tumor necrosis (pathologic evaluation, H&E): progressive increase in the severity of tumor necrosis
[10]; MMTV-PyMT tumors, 48 hours after administration
  Cy3-labeled cleaved Caspase-3 immunofluorescent staining of tumor cells: significant labeling of tumor cells
[11]
  change in tumor size: overall decrease in tumor size
[12]
  caspase expression ratio relative to the PBS control: 2.883

## FITC-βAla-Cys-Arg-Ser-Cit-Gly-HPhe-Tyr-Leu-Tyr [ICT]
[13]
  prodrug cleaved by MMP-14: 89%
[2]
  tumor enhancement on postcontrast T2-weighted MR images: did not show any significant MR signal enhancement
[12]
  caspase expression ratio relative to the PBS control: 2.994
